Assay results: patent publication US20120258119A1 (LUDWIG INSTITUTE FOR CANCER RESEARCH, published 2012)

T1: human Fibroblast Activation Protein (FAP) expressed on cells (human, UniProt Q12884 1-760)
T1 construct: whole, on cells; also called huFAP; human FAP
T1 sequence (looked up): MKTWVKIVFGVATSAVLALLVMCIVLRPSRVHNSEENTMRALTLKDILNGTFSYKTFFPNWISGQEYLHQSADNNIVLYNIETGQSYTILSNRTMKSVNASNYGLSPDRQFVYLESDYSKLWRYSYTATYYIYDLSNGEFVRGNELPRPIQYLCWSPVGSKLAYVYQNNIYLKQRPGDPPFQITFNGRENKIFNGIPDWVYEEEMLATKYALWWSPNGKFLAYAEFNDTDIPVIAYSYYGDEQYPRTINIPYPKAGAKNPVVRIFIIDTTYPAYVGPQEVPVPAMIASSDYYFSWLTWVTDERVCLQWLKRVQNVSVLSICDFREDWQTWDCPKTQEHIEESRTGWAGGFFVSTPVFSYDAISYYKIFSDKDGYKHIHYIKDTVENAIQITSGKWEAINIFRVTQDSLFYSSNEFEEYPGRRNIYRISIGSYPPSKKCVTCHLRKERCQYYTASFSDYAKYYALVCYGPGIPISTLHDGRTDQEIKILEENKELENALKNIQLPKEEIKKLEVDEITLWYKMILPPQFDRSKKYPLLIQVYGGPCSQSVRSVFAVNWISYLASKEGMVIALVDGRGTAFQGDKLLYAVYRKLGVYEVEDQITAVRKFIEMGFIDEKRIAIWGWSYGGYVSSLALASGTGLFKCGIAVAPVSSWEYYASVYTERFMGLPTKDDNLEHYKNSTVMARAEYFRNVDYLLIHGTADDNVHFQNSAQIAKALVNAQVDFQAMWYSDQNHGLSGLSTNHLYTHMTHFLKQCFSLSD

T2: murine FAP expressed on HEK293 cells (mouse, UniProt P97321 1-761)
T2 construct: whole, on cells; Also used as cell lysate in ELISA; also called muFAP; mouse FAP
T2 sequence (looked up): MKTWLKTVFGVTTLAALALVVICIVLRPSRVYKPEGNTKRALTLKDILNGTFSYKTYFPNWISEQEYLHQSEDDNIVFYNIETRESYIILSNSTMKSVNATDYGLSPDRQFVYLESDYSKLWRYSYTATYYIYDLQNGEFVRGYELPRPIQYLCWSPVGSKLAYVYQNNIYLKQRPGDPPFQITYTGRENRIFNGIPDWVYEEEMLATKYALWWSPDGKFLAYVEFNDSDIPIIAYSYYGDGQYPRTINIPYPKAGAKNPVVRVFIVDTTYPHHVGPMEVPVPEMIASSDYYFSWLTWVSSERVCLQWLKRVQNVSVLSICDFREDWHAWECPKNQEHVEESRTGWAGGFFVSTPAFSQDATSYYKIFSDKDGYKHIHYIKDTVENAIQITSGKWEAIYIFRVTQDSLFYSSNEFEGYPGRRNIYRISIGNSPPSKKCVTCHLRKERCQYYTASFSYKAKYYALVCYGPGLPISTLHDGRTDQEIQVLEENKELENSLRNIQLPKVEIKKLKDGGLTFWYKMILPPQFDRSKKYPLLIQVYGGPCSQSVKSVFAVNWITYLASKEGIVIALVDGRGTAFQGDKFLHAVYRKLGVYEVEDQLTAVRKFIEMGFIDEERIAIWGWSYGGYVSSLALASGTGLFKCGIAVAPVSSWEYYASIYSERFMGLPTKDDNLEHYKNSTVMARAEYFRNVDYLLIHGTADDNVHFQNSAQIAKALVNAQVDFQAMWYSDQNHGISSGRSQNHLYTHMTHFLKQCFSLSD

T3: recombinant human FAP (R&D systems) (human, UniProt Q12884 26-760)
T3 construct: Bought protein amine-coupled at low density on a CM5 chip for SPR; also called rhuFAP; rFAP
T3 sequence (looked up): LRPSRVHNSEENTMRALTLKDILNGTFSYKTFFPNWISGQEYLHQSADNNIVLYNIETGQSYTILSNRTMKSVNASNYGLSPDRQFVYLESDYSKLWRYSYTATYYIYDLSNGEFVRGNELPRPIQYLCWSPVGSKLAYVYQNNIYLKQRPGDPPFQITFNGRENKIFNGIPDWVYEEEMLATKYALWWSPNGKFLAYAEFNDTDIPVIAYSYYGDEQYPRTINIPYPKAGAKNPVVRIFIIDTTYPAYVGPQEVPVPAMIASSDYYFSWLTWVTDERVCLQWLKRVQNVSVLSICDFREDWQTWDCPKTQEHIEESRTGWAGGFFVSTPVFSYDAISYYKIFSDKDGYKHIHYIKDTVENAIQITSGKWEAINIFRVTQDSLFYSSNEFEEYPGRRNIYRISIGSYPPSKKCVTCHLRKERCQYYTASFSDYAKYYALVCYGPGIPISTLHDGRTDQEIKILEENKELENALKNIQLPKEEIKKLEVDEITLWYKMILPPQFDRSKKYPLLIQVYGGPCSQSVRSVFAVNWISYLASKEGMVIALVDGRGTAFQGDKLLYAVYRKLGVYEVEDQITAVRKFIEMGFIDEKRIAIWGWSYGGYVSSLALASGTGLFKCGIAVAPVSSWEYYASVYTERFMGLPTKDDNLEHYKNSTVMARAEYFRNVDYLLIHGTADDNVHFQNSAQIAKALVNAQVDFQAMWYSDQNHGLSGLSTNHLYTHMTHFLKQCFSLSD


Experiments:
[1] = target: T1, human Fibroblast Activation Protein …; test: flow cytometry, serial dilutions on human FAP expressing cells (apparent KD)
[2] = target: T4, human DPPIV/CD26 expressed on HEK293 cells (human, UniProt P27487 1-766); test: ELISA, Fab at 100 nM on plates coated with cell lysate
T4 construct: whole, on cells; also called huCD26; dipeptidyl peptidase IV
T4 sequence (P27487 whole entry): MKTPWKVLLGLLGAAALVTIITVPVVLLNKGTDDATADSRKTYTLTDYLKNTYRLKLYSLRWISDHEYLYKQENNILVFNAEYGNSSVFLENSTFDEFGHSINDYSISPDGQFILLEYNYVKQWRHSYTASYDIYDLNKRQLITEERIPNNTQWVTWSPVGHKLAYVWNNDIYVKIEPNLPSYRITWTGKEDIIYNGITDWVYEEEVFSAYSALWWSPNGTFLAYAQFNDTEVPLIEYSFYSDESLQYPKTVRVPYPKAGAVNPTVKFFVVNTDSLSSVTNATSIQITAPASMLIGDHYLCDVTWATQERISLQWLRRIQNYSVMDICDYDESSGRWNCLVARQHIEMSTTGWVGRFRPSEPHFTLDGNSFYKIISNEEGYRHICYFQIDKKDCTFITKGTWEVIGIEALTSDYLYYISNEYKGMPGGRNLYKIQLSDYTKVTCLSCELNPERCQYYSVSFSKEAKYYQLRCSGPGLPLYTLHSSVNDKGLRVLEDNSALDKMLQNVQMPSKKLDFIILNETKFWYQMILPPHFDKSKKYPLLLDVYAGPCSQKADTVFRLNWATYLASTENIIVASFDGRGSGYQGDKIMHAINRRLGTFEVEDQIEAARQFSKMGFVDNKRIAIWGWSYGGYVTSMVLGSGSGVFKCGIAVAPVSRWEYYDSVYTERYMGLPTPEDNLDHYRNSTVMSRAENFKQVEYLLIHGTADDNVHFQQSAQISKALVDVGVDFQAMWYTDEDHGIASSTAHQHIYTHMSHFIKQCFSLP

[3] = target: T2, murine FAP expressed on HEK293 cells; test: flow cytometry, serial dilutions on 293 muFAP+ cells (apparent KD)
Experimental: The cells were then washed once with PBS, fixed for 20 min with 2% PFA on ice and bound antibody was detected with PE-conjugated anti-human IgG F(ab)′₂ (Jackson Immuno Research 109-116-097). Cells were analyzed on a FACScan (BD) cytometer and data was analysed with FlowJo. The apparent Kapp was calculated by fitting a dose-response curve using the following equitation f=Bmax*abs(x)/(Kd+abs(x))+Ns*x using SigmaPlot software (Systat Software Inc.).

[4] = target: T3, recombinant human FAP (R&D systems); test: SPR (BIAcore T100), Fab injected over rhuFAP on a low-density CM5 chip
Experimental: (§1) Binding analysis of Fabs to recombinant FAP (R&D systems) was performed on a BIAcore T100 instrument. rFAP was immobilized at low density on a CM5 sensor chip using amine coupling chemistry. […] Analysis of the binding curves and determination of rate constants was done using the nonlinear data analysis program BIAevaluation.

[5] = target: T3, recombinant human FAP (R&D systems); test: SPR (BIAcore), Fab 0.5-16 nM injected over rhuFAP on a CM5 chip, heterogeneous ligand model [box under the left panel]
Experimental: (§2) Purified Fabs were injected at the concentrations indicated in the figure on a rhuFAP-coated CM5 sensor chip. Values were corrected for binding to the reference flow cell. The black solid lines represent the theoretical curves for each Fab concentration calculated according to the heterogeneous ligand model and the indicated rate and affinity constants.
as §1

[6] = target: T3, recombinant human FAP (R&D systems); test: SPR (BIAcore), Fab 6.25-200 nM injected over rhuFAP on a CM5 chip, heterogeneous ligand model [box under the right panel]
Experimental: as §2, §1

Binder | Kd [1] [nM] | binding result [2] | Kd [3] [nM] | Kd [4] [nM] | koff [5] [s⁻¹] | kon [5] [M⁻¹ s⁻¹] | koff [6] [s⁻¹] | kon [6] [M⁻¹ s⁻¹]
ESC11 IgG1 (antibody, V domains shown, Variable domains cloned into a full human IgG1 format (modified pEE12.4 vector) and produced in NS0 cells; also called ESC11 DyLight 488) VH: QVQLQESGPGLVKPSETLSLTCTVSGGSISSNNYYWGWIRQTPGKGLEWIGSIYYSGSTNYNPSLKSRVTISVDTSKNQFSLKLSSVTAADTAVYYCARGARWQARPATRIDGVAFDIWGQGTMVTVSS VL: ETTLTQSPGTLSLSPGERATLSCRASQTVTRNYLAWYQQKPGQAPRLLMYGASNRAAGVPDRFSGSGSGTDFTLTISRLEPEDFAVYYCQQFGSPYTFGQGTKVEIK | 1.1 |  |  |  |  |  |  | 
ESC11 Fab fragment (Fab, V domains shown, Fully human Fab from a non-immunized phage library, made in E. coli TG-1, His-tag purified and detected by its myc tag; also called Fab ESC11) VH: HVQLQESGPGLVKPSETLSLTCTVSGGSISSNNYYWGWIRQTPGKGLEWIGSIYYSGSTNYNPSLKSRVTISVDTSKNQFSLKLSSVTAADTAVYYCARGARWQARPATRIDGVAFDIWGQGTMVTVSS VL: ETTLTQSPGTLSLSPGERATLSCRASQTVTRNYLAWYQQKPGQAPRLLMYGASNRAAGVPDRFSGSGSGTDFTLTISRLEPEDFAVYYCQQFGSPYTFGQGTKVEIK |  | no binding (tested: 100 nM) | 51 | 10 | 0.017 | 1.6e+06 |  | 
ESC14 Fab fragment (Fab, V domains shown, Fully human Fab from a non-immunized phage library, made in E. coli TG-1, His-tag purified and detected by its myc tag; also called Fab ESC14) VH: EVQLVQSGAEVKKPGASVKVSCKASGYTFTSYGISWVRQAPGQGLEWMGWISAYNGNTNYAQKLQGRVTMTTDTSTSTAYMELRSLRSDDTAVYYCARDWSRSGYYLPDYWGQGTLVTVSS VL: DVVMTQSPLSLPVTLGQPASISCRSSQSLLHSNGYNYLDWYLQRPGQSPHLLIFLGSNRASGVPDRFSGSGSGTDFTLKISRVEAEDVGIYYCMQALQTPPTFGQGTKVEIK |  | no binding (tested: 100 nM) | 251 | 210 |  |  | 0.125 | 560000
ESC14 IgG1 (antibody, V domains shown, Variable domains cloned into a full human IgG1 format and produced in NS0 cells) VH: EVQLVQSGAEVKKPGASVKVSCKASGYTFTSYGISWVRQAPGQGLEWMGWISAYNGNTNYAQKLQGRVTMTTDTSTSTAYMELRSLRSDDTAVYYCARDWSRSGYYLPDYWGQGTLVTVSS VL: DVVMTQSPLSLPVTLGQPASISCRSSQSLLHSNGYNYLDWYLQRPGQSPHLLIFLGSNRASGVPDRFSGSGSGTDFTLKISRVEAEDVGIYYCMQALQTPPTFGQGTKVEIK | 1.1 |  |  |  |  |  |  | 
